According to a protein production outcome set (Wang et al. 2014):

Test: label from the status in PepcDB records

Row | Sequence | protein production
1 | MPTVKKLTKQVVDGLPTPATGQAFHWCSVTPGFAVRVTASGAKSYIVQGRVNSKTCRYTIGPCELLGTDEARKRALARLLEMHDGMNPQVERKRRQAQGVTLREVMEDYVENKRTKHGTLRDSSQADIKRCVTQHLADWADKPVASITREACVKRFRELSATAPTTANQVFRNLRALCNWARETNVAPDGSYPILPINPVVQAFKSVTWNKEVTREEFVPLAKVGAVWNMLAERSNAQIYTTADVTAAHLVMFLILTGARIGEGSALHWKDVRLDDEVPSFTFTQTKNHNEVTIPLSTQLHALLAARYSARRPDEEYVFPSRTGTREPHMQDARGTMQRVSKIAGLHLHNHDLRRTFLAIAIECGVEMWKAEILTNHLPQTVTLKHYTQTRDLRYLQADTQRVADWITKQAQVASGQNVVALRA | failed
2 | MTDTRPAQSLGPGLQPETRSLGDEPVRLVDTTMLYAPRSGGVRRYLSSKRAWLASHRPDVRHTLVVPGARDFHDGRGQVSIYAAPLPFGAGYRWPVVKQTWMERLIRQQPDLIEAGDPYTPGLAALRAGDALGVPVVGFCHTDLGKLAALHIGDWAEKPVQKRWAAIYRQFDQAVAPSRFIAGRLIEAGVRDAIGLPLGVDTAIFHPERGDRDGLRRRLGLSPKDRLLVFAGRPAREKKLDVLVAAVERLGDPYKLLFVGAGGGAPVSDRTLCIDYVRDPVELASILASCDAFVHANDNEPFGLIVLEAMACGLPVVGVSAGGVAESVDAAVGQLAVASEATAFADAIEALFERDVTVVGEAARRRAVERHGWDAVFTELCLIYDRLTGRRAFSSASAHAGH | failed
3 | MNADTAIRIIEPPPSRGQLLYDGIRSLRKPKPDAAPQLPTERLVRPAVELKADEIARYARACGFRREHGVPLAFPHTLAFPLHLLLLTRPTFPYPASGMVHLANRIRQYQRLEEGQALRLEVFAERWLAHPKGQALSIATRAHSGGSLVWESDSLYLRRGVAGPIGEPWEGSLQWDEQALVRTQRWSLGGDLGRRFAQVSGDFNPIHTSWLGARLFGFRRPIAHGMWTLGRALAAQQPPHPLAAAQLDCEFKLPIFLPAAVTLWNRLPDGPRHEFEVRNNAGDKPHMRGLFIWGAR | failed
4 | MQTLNDIYLAYLDSLNHQAFDELGTFVDDNVEHNGRPFGLSGYRDMLVKDFADIPDLRFEAEILVSDATRLAARLFFDCTPKSIFMDLPVNGRRVQFCEHVFYDFEQAKIRRVWSVLDKVAIERQLG | not failed
5 | MFFKEIHHVAINASNYQATKNFYVEKLGFEVLRENHRPEKNDIKLDLKLGSQELEIFISDQFPARPSYPEALGLRHLAFKVEHIEEVIAFLNEQGIETEPLRVDDFTGKKMTFFFDPDGLPLELHE | not failed
6 | MEIKRFGRIREVIPLPPLTEIQVESYRRALQADVPPEKRENVGIQAAFRETFPIEEEDKGKGGLVLDFLEYRLGEPPFPQDECREKDLTYQAPLYARLQLIHKDTGLIKEDEVFLGHIPLMTEDGSFIINGADRVIVSQIHRSPGVYFTPDPARPGRYIASIIPLPKRGPWIDLEVEPNGVVSMKVNKRKFPLVLLLRVLGYDQETLARELGAYGELVQGLMDESVFAMRPEEALIRLFTLLRPGDPPKRDKAVAYVYGLIADPRRYDLGEAGRYKAEEKLGIRLSGRTLARFEDGEFKDEVFLPTLRYLFALTAGVPGHEVDDIDHLGNRRIRTVGELMTDQFRVGLARLARGVRERMLMGSEDSLTPAKLVNSRPLEAAIREFFSRSQLSQFKDETNPLSSLRHKRRISALGPGGLTRERAGFDVRDVHRTHYGRICPVETPEGANIGLITSLAAYARVDELGFIRTPYRRVVGGVVTDEVVYMTATEEDRYTIAQANTPLEGNRIAAERVVARRKGEPVIVSPEEVEFMDVSPKQVFSVNTNLIPFLEHDDANRALMGSNMQTQAVPLIRAQAPVVMTGLEERVVRDSLAALYAEEDGEVAKVDGNRIVVRYEDGRLVEYPLRRFYRSNQGTALDQRPRVVVGQRVRKGDLLADGPASENGFLALGQNVLVAIMPFDGYNFEDAIVISEELLKRDFYTSIHIERYEIEARDTKLGPERITRDIPHLSEAALRDLDEEGVVRIGAEVKPGDILVGRTSFKGESEPTPEERLLRSIFGEKARDVKDTSLRVPPGEGGIVVRTVRLRRGDPGVELKPGVREVVRVYVAQKRKLQVGDKLANRHGNKGVVAKILPVEDMPHLPDGTPVDVILNPLGVPSRMNLGQILETHLGLAGYFLGQRYISPIFDGAKEPEIKELLAQAFEVYFGKRKGEGFGVDKREVEVLRRAEKLGLVTPGKTPEEQLKELFLQGKVVLYDGRTGEPIEGPIVVGQMFIMKLYHMVEDKMHARSTGPYSLITQQPLGGKAQFGGQRFGEMEVWALEAYGAAHTLQEMLTLKSDDIEGRNAAYEAIIKGEDVPEPSVPESFRVLVKELQALALDVQTLDEKDNPVDIFEGLASKR | not failed
7 | LLKVEFYKLKRSKVFYLFIVLMIMQSMFVLIPIKENYLLNKTGQDMFLQSFPLQEFIFNTLIIGAFGYFIGKEFHSGYIKNLIVSGHKRINIVLSKAIVFCIGVAIISFIFPICTFVINSIRNGYGEKYSVEYMFEVSVIMLFVYLAIGSIVTMISFITKNIAITIALFYLI | failed
8 | DPSPQTIYKWIKDNISPKLHVDKGFVNILMTSFLQYISSEVNPPSDETDSSSAPS | failed
9 | MLKMKNNGGGCLAYISDCSVYLPVWKLKRDEISKETGMPSMGGERAVAHWDEDSITMAVEAARKFDGAFDAVIFASSSPPFRIKQCASFIASALDLPDSTFTMDITDTMRAATDALITANEFVDSGRFSRVLVVAGDKIPTKPGTLYEQLYGDAAAAVVVEKEGGAKILGYSTSTKPLPGSWMLADDDTVRDYDMRVDARYGYAASVQKAAMPLFAKLGLSPADIDRIVASAPDPKSYQGLLKAVGARPEEFYFDSVGIAGSAHPLLLLATQLEREGRILLGGYGEGADVIAVEIEQAMDSNMGRMLESRKEISYGDYLFNRGFVGVRDAPDRPSLTKFWRDEKSIIRFYGMKCKSCGTVSYPISRCCIECGAKDNYEEVRLGERGKIYTFTIDYLVMPGNYAGDGVHPHFIAVVDLDGGGRVLFELTDTLRDFSGVECDAEVERTFRLLFEKNRFRYYGWKARLPRLEHHHHHH | not failed
10 | MSSSTERPALPLNECDPHWLRNLWVCVFGVFTTIVAMTLLLPFLPLYVEQLGVDNHAAVVLWSGATYGATFLSAAITAPLWGRLGDRYGRKLMLIRASLGMAVAMSLIGLAQTVWQLLLLRLLAGLLGGYASGATILVATQTPKARSGWALGVLSSGIMAGSLAGPLMGGVLPPLIGIRNTFFLAGGVIFITFLATLLLLREMPRKAPSRATDSALPAVVKLSGEQRRMITCMFVVASLVMFSTMSVEPIITVYLRQLKTDNVTMMAGVVMSATALGSILAASRLGRLADRIGYLPVLTSCLAMTALTLIPQAWVSNVWQLAALRFFMGLALGGLLPCVAAIIRHTVPNEVAGRMLGYSTSSQYLGQVLGPLAGGLLGGYLGIGSVFLGTAMVLAACSIMVGRMDMIRTPASSKL | failed
11 | MADADLVMTGTVLTVDDARPTAEAIAVADGRVIAVGDRSEVAGLVGANTRVIDLGAGCVMPGFVEAHGHPLLEAVVLSDRFVDIRPVTMRDADDVVAAIRGEVARRGPAGAYLVGWDPLLQSGLGEPTLTWLDSLAPNGPLVIIHNSGHKAYFNSHAAWLNGLTRDTADPKGAKYGRDGNGELDGTAEEIGAILPLLAGVADPSNFGAMLRAECARLNRAGLTTCSEMAFDPGYRPMVEAVRAELTVRLCTYEISNARMCTDATPGQGDDMLRQVGIKIWVDGSPWVGNIDLTFPYLDTPATRAIGVPPGSRGCANYTREQLAEIVGAYFPRGWQIACHVHGDGGVDTILDVYEEALRRNPRDDHRLRLEHVGAIRPDQLRRAAELGVTCSIFVDQIHYWGDVIVDDLFGAQRGSRWMPAGSAVAAGMRISLHNDPPVTPEEPLRNISVAATRVAPSGRVLAPEERLTVEQAIRAQTIDAAWQLFAEDAIGSLQVGKYADMVVLSADPRTVPPEQIADLAVRATFLAGRQVYRRLEHHHHHH | failed
12 | MKQKLLVTLLGLSALGASPVFAANTNVDLAEDAYIYGYSIDEAYKFFYHTAVENNYPLNEFQNRRALADDSYTAHPTINNDTLHLMGWLDVAAEPVIVSVPDMDEGRYWILHTMDMGHYTNAAFSSRTRGTKGGQFMFAAQDWQGEVPASVDEVVRVDSNLVKLMGRIMAVNDEDAKVALNYMDQWNIRTLSEYLGKNGPKPVQRTYPDPKKSTWLERVNFVLCDGSMGNADKQWLDKYQSIGVEPCKTDFTPEQLKLAKVGEKKGMEHLVELAPKMTDARTLLGTRDTLGDAPRDIFAEGTYLGQWGLPPIEASYRKSDFDSIGQKLDGSKHDYVMRFKAPNVSEFWSVTIYGNDNRLMAKNDLNRHSRGDRTMKADKDGYYTIYMSANEKGRADDPNFLPVPEKPFYAIMRFYGADDAIQSGEYQMPEIKVVKLEHHHHHH | not failed
